Measured values published in patent US20260266848A1, “COMPOSITIONS AND METHODS FOR DIAGNOSING AND TREATING DYSTONIA” (Duke University, priority 2023, published 2026).

Tests used:
DYT-TOR1A MEF EVs = experiment: Quantitative LC-MS/MS proteomics of EVs from drug-treated DYT-TOR1A MEF cultures (ritonavir, salubrinal); format: cell-based, mouse; parameters: key to RTV Corrective Direction / RTV Corrective Direction, Grwd1 / RTV Corrective Direction, Srrm2 / RTV Corrective Direction, Rbm17 / RTV Corrective Direction, Dcaf8 / RTV Corrective Direction, Edil3 / RTV Corrective Direction, Timp3 / RTV Corrective Direction, Heatr3 / RTV Corrective Direction, Brd4 / RTV Corrective Direction, P3h4 / RTV Corrective Direction, Pacsin3 / RTV Corrective Direction, Naa50 / RTV Corrective Direction, Lpar6 / RTV Corrective Direction, Ndrg1 / RTV Corrective Direction, Kntc1 / RTV Corrective Direction, Cdk11b / RTV Corrective Direction, Sumo1 / RTV Corrective Direction, Lsm4 / RTV Corrective Direction, Hmga2 / RTV Corrective Direction, Cstf1 / RTV Corrective Direction, Tes / RTV Corrective Direction, Sbno1 / RTV Corrective Direction, Unc119b / RTV Corrective Direction, Cfdp1 / RTV Corrective Direction, Sec61b: YES = protein abundance effect opposite to DYT/WT; details: EV protein abundance; for RTV Corrective Direction: DYT + RTV (ritonavir) vs DYT, direction compared with DYT/WT; for DYT + RTV/DYT Cohen's d: ritonavir (RTV)-treated DYT vs DYT
WT MEF EVs = experiment: Quantitative LC-MS/MS proteomics of EVs from ISRIB-treated WT MEF cultures; format: cell-based, mouse; parameters: key to ISRIB and DYT Parallel Direction / ISRIB and DYT Parallel Direction, Ctdsp1 / ISRIB and DYT Parallel Direction, Pcdh19 / ISRIB and DYT Parallel Direction, Tspan7 / ISRIB and DYT Parallel Direction, Myo1e / ISRIB and DYT Parallel Direction, Plpp3 / ISRIB and DYT Parallel Direction, Sh3bp4 / ISRIB and DYT Parallel Direction, Dnajc7 / ISRIB and DYT Parallel Direction, Drg1 / ISRIB and DYT Parallel Direction, Maea: YES = protein abundance effect similar to DYT/WT; details: EV protein abundance; for WT + ISRIB/WT Cohen's d: ISRIB-treated WT vs WT; for ISRIB and DYT Parallel Direction: WT + ISRIB vs WT, direction compared with DYT/WT

Row | Molecule | RTV Corrective Direction (DYT-TOR1A MEF EVs) | DYT + RTV/DYT Cohen's d (DYT-TOR1A MEF EVs) | WT + ISRIB/WT Cohen's d (WT MEF EVs) | ISRIB and DYT Parallel Direction (WT MEF EVs)
1 | Dctn2 (protein, UniProt Q99KJ8 2-402, looked up) Dynactin subunit 2: ADPKYADLPGIARNEPDVYETSDLPEDDQAEFDAEELSSTSVEHIIVNPNAAYDKFKDKRVGTKGLDFSDRIGKTKRTGYESGDYEMLGEGLGVKETPQQKYQRLLHEVQELTTEVEKIKTTVKESATEEKLTPVVLAKQLAALKQQLVASHLEKLLGPDAAINLADPDGALAKRLLLQLEATKSSKGSSGGKATAGAPPDSSLVTYELHSRPEQDKFSQAAKVAELEKRLTELEATVRCDQDAQNPLSAGLQGACLMETVELLQAKVSALDLAVLDQVEARLQSVLGKVNEIAKHKASVEDADTQNKVHQLYETIQRWSPVASTLPELVQRLVTIKQLHEQAMQFGQLLTHLDTTQQMMASSLKDNTALLTQVQTTMRENLATVEGNFASIDARMKRLGK | YES | 5.51 | −0.53 | YES
2 | Psmd8 (protein, UniProt Q9CX56 1-353, looked up) 26S proteasome non-ATPase …: MFIKGRAAKTPRGEPRRSSRGGRKLAVVAPPPVLGSTSRPHFRRESIARRRCRKSGRRLAASRKMAATAATVNGSTTVSSSGPAATSVGILQAAAGMYEQLKDEWNRKNPNLSKCGEELGRLKLVLLELNFLPTTGTKLTKQQLILARDILEIGAQWSILCKDIPSFERYMAQLKCYYFDYKEQLPESAYMHQLLGLNLLFLLSQNRVAEFHTELERLPAKDIQTNVYIKHPVSLEQYLMEGSYNKVFLAKGNIPAESYTFFIDILLDTIRDEIAGCIEKAYEKILFAEATRILFFSTPKKMTDYAKKRGWVLGPNNYYSFASQQQKPEDSTIPSTELAKQVIEYARQLEMIV | YES | 23.45 | −3.31 | YES
3 | Kpna4 (protein, UniProt O35343 2-521, looked up) Importin subunit alpha-3: ADNEKLDNQRLKNFKNKGRDLETMRRQRNEVVVELRKNKRDEHLLKRRNVPQEDICEDSDIDGDYRVQNTSLEAIVQNASSDNQGIQLSAVQAARKLLSSDRNPPIDDLIKSGILPILVHCLERDDNPSLQFEAAWALTNIASGTSEQTQAVVQSNAVPLFLRLLHSPHQNVCEQAVWALGNIIGDGPQCRDYVISLGVVKPLLSFISPSIPITFLRNVTWVMVNLCRHKDPPPPMETIQEILPALCVLIHHTDVNILVDTVWALSYLTDAGNEQIQMVIDSGIVPHLVPLLSHQEVKVQTAALRAVGNIVTGTDEQTQVVLNCDALSHFPALLTHPKEKINKEAVWFLSNITAGNQQQVQAVIDANLVPMIIHLLDKGDFGTQKEAAWAISNLTISGRKDQVAYLIQQNVIPPFCNLLTVKDAQVVQVVLDGLSNILKMAEDQAETIANLIEECGGLEKIEQLQNHENEDIYKLAYEIIDQFFSSDDIDEDPSLVPESVQGGTFGFNSSTNVPTEGFQF | YES | 2.38 | −3.18 | YES
4 | Sec23a (protein, UniProt Q01405 2-765, looked up) Protein transport protein …: TTYLEFIQQNEERDGVRFSWNVWPSSRLEATRMVVPVAALFTPLKERPDLPPIQYEPVLCSRTTCRAVLNPLCQVDYRAKLWACNFCYQRNQFPPTYAGISELNQPAELLPQFSSIEYVVLRGPQMPLIFLYVVDTCIEDEDLQALKESMQMSLSLLPPTALVGLITFGRMVQVHELGCEGISKSYVFRGTKDLSAKQLQEMLGLSKVPVTQATRGPQVQQPPPSNRFLQPVQKIDMNLTDLLGELQRDPWPVPQGKRPLRSSGVALSIAVGLLECTFPNTGARIMMFIGGPATQGPGMVVGDELKTPIRSWHDIEKDNAKYVKKGTKHFEALANRAATTGHVIDIYACALDQTGLLEMKCCPNLTGGYMVMGDSFNTSLFKQTFQRVFTKDIHGQFKMGFGGTLEIKTSREIKISGAIGPCVSLNSKGPCVSENEIGTGGTCQWKICGLSPTTTLAIYFEVVNQHNAPIPQGGRGAVQFVTQYQHSSGQRRIRVTTIARNWADAQTQIQNIAASFDQEAAAILMARLAIYRAETEEGPDVLRWLDRQLIRLCQKFGEYHKDDPNSFRFSETFSLYPQFMFHLRRSPFLQVFNNSPDESSYYRHHFMRQDLTQSLIMIQPILYAYSFSGPPEPVLLDSSSILADRILLMDTFFQILIYHGETIAQWRKSGYQDMPEYENFRHLLQAPVDDAQEILHSRFPMPRYIDTEHGGSQARFLLSKVNPSQTHNNMYAWGQESGAPILTDDVSLQVFMDHLKKLAVSSAA | YES | 8.14 | −0.95 | YES
5 | Fth1 (protein, UniProt P09528 1-182, looked up) Ferritin heavy chain: MTTASPSQVRQNYHQDAEAAINRQINLELYASYVYLSMSCYFDRDDVALKNFAKYFLHQSHEEREHAEKLMKLQNQRGGRIFLQDIKKPDRDDWESGLNAMECALHLEKSVNQSLLELHKLATDKNDPHLCDFIETYYLSEQVKSIKELGDHVTNLRKMGAPEAGMAEYLFDKHTLGHGDES | YES | 0.31 | −3.46 | YES
6 | Qars (protein, UniProt Q8BML9 2-775, looked up) Glutamine--tRNA ligase: ATPDSLALFTGLGLSENKARETLKNEALSTQLREAATQAHQILGSTIDKATGVLLYDLVSRLRDTRRRSFLVSYIANKKIHTGLQLSAALEYVRSHPQDPIDTKDFEQECGVGVVVTPEQIEEAVESTINKHQLQLLAERYRFNMGLLMGEARAALRWADGKMIKNEVDMQVLHLLGPKMEADLVKKPKVAKARLEETDRKTAKDVVEKGEVAGQTLSLMEQLRGEALKFHKPGENYKTPGYVITPYTMDLLKQHLEITGGQVRTRFPPEPNGILHIGHAKAINFNFGYAKANNGICFLRFDDTNPEKEEAKFFTAIYDMVTWLGYTPYKVTYASDYFDQLYAWAVELIHGGLAYVCHQRVEELKGHNPLPSPWRDRPKEESLLLFEAMRKGKFAEGEATLRMKLVMEDGKMDPVAYRVKYTPHHRTGDKWCIYPTYDYTHCLCDSIEHITHSLCTKEFQARRSSYFWLCNALKVYCPVQWEYGRLNLHYAVVSKRKILQLVAAGAVRDWDDPRLFTLTALRRRGFPPEAINNFCARVGVTVAQTTMEPHLLEACVRDVLNDAAPRAMAVLEPLQVVITNFPAPKPLDIRVPNFPADETKGFHQVPFASTVFIERSDFKEESEPGYKRLASGQPVGLRHTGYVIELQNIVRGSSGCVERLEVTCRRADAGEKPKAFIHWVSQPLVCEIRLYECLFQHKNPEDPVEVPGGFLSDLNPASLQVVEGALVDCSVALAKPFDKFQFERLGYFSVDPDSHQGQIVFNRTVTLKEDPGKI | YES | 7.21 | −2.14 | YES
7 | Ipo11 (protein, UniProt Q8K2V6 1-975, looked up) Importin-11: MDLNSASSVVLQVLTQATSQDTAVLKPAEEQLKQWETQPGFYSVLLNIFTNHTLDINVRWLAVLYFKHGIDRYWRRVAPHALSEEEKSTLRAGLITNFNEPINQIATQIAVLIAKVARLDCPRQWPELIPTLVESVKVQDDLRQHRALLTFYHVTKTLASKRLAADRKLFYDLASGIYNFACSLWNHHTDTFLQHVSSGNEAAVLSSLERTLLSLKVLRKLTVNGFVEPHKNMEVMGFLHGIFERLKQFLECSRSIGTDNVCRDRLEKTIILFTKVLLDFLDQHPISFTPLIQRSLEFSVSYVFTEVGEGVTFERFIVQCMNLIKMIVKNYAYKPSKNFEDSSPETLEAHKIKMAFFTYPTLTEICRRLVSHYFLLTEEELTMWEEDPEGFTVEETGGDSWKYSLRPCTEVLFIDIFHEYNQTLTPVLLEMMQTLEGPTNVEDMNALLIKDAVYNAVGLAAFELFDSVDFDQWFKTQLLPELQVSHNRYKPLRRRVIWLIGQWISVKFKSDLRPMLYEAICNLLQDQDLVVRIETATTLKLTVDDFEFRTDQFLPYLETMFTLLFQLLQQVTECDTKMHVLHVLSCVIERVNVQIRPYVGCLVQYLPLLWKQSEEHNMLRCAILTTLIHLVQGLGADSKNLYPFLLPVIQLSTDVSQPPHVYLLEDGLELWLVTLENSPCVTPELLRIFQNMSPLLELSSENLRTCFKIINGYIFLSSTEFLQTYAAGLCQSFYELLPEITTEGQVQVLKVVENALKVNPVLGPQMFQRILPCVFRGVIEGERYPVVMSIYLAVMGRVLLQNTSFFSSLLNEMGHEFNQEMDQLLGNVIEMWVDRMDNITQPERKKLSALALLSLLPSDNSVIQDKFCGIINISVEALHDVMTEDPETRTYKDCMLMSQHEEPKVTEDEEPPTEQDKRKKMLALKDPVHTVSLQQFIYEKLKAQQEILGEQGFQSLMETVDTEIVTQLQEFLQGF | YES | 9.75 | −1.97 | YES
